{"source": "patent US20250313859", "proteins": {"B1": {"name": "human ARSA enzyme expressed from the AAVhu68.CB7.CI.hARSAco.rBG transgene in cynomolgus macaques (protein)", "chain": "RPPNIVLIFADDLGYGDLGCYGHPSSTTPNLDQLAAGGLRFTDFYVPVSLCTPSRAALLTGRLPVRMGMYPGVLVPSSRGGLPLEEVTVAEVLAARGYLTGMAGKWHLGVGPEGAFLPPHQGFHRFLGIPYSHDQGPCQNLTCFPPATPCDGGCDQGLVPIPLLANLSVEAQPPWLPGLEARYMAFAHDLMADAQRQDRPFFLYYASHHTHYPQFSGQSFAERSGRGPFGDSLMELDAAVGTLMTAIGDLGLLEETLVIFTADNGPETMRMSRGGCSGLLRCGKGTTYEGGVREPALAFWPGHIAPGVTHELASSLDLLPTLAALAGAPLPNVTLDGFDLSPLLLGTGKSPRQSLFFYPSYPDEVRGVFAVRTGKYKAHFFTQGSAHSDTTADPACHASSSLTAHEPPLLYDLSKDPGENYNLLGGVAGATPEVLQALKQLQLLKAQLDAAVTFGPSQVARGEDPALQICCHPGCTPRPACCHCPDPHA"}}, "molecular_target": "anti-human ARSA (hARSA) antibodies in cerebrospinal fluid and serum of cynomolgus macaques given AAVhu68.CB7.CI.hARSAco.rBG"}
{"protein": "B1", "values": [{"measurement": "ARSA activity levels in CSF (hydrolysis of 4-nitrocatechol sulfate)", "value": "CSF ARSA activity levels returned to approximately baseline levels over the subsequent 28 days"}]}
